This is an account of results in US20200339692A1 (JIANGSU HENGRUI MEDICINE, published 2020).

First the molecules themselves.
B1: H6L11 (antibody, human IgG1, kappa, V domains shown)
VH: QVQLQESGPGLVKPSQTLSLTCTVSGGSISNDYWTWIRQHPGKGLEYIGFISRAGSTYNTPSLKGRVTISRDTSKNQFSLKLSSVTAADTAVYYCARSGGWLAPFDYWGRGTLVTVSS
VL: DIVMTQSPDSLAVSLGERATINCKSSQSLFYHSNQKHSLAWYQQKPGQPPKLLIYGASTRESGVPDRFSGSGSGTDFTLTISSLQAEDVAVYYCQQYYGYPYTFGGGTKVEIKR
notes: also called 9-2 H6 and 9-2 L11
B2: H5L11 (antibody, human IgG1, kappa, V domains shown)
VH: QVQLQESGPGLVKPSQTLSLTCTVSGGSISDGSAYWSWIRQHPGKGLEYIGFISRAGSTYNTPSLKGRVTISRDTSKNQFSLKLSSVTAADTAVYYCARSGGWLAPFDYWGRGTLVTVSS
VL: B1 VL
notes: from the HRP00049 mutant library; also called 9-2 H5 and 9-2 L11
B3: H7L11 (antibody, human IgG1, kappa, V domains shown)
VH: B1 VH with F50M, R53V, N59H
VL: B1 VL
notes: also called 9-2 H7 and 9-2 L11
B4: H18L61 (antibody, human IgG1, kappa, V domains shown)
VH: QVQLVQSGAEVKKPGASVKVSCKASGYTFTSYWMHWVRQAPGQGLEWMGRISPSSGMAVYNEKFKNRVTMTRDTSTSTVYMELSSLRSEDTAVYYCARGGSSYDYFDYWGQGTTVTVSS
VL: DIVLTQSPASLAVSPGQRATITCRASESVSIHGTHLMHWYQQKPGQPPKLLIYAASNLESGVPARFSGSGSGTDFTLTINPVEAEDTANYYCQQSFEDPLTFGQGTKLEIKR
notes: also called 24D5 H18 and 24D5 L61
B5: H12L64 (antibody, human IgG1, kappa, V domains shown)
VH: B4 VH with S52T, M57F, V59M
VL: B4 VL with A54V, N57Y, L58A, E59A
notes: from the HRP00052 mutant library; also called 24D5 H12 and 24D5 L64
B6: H12L61 (antibody, human IgG1, kappa, V domains shown)
VH: B4 VH with S52T, M57F, V59M
VL: B4 VL
notes: also called 24D5 H12 and 24D5 L61
B7: H14L61 (antibody, human IgG1, kappa, V domains shown)
VH: B4 VH with S52H, S55L, M57L, A58P, V59L
VL: B4 VL
notes: also called 24D5 H14 and 24D5 L61
B8: H19L61 (antibody, human IgG1, kappa, V domains shown)
VH: B4 VH with S54G, S55G, M57F, A58T, V59L
VL: B4 VL
notes: also called 24D5 H19 and 24D5 L61
B9: H15L61 (antibody, human IgG1, kappa, V domains shown)
VH: B4 VH with S25N, S31D, Y32K, H35M, S52T, M57F, V59M
VL: B4 VL
notes: also called 24D5 H15 and 24D5 L61
B10: H13L61 (antibody, human IgG1, kappa)
heavy: not shown
light: DIVLTQSPASLAVSPGQRATITCRASESVSIHGTHLMHWYQQKPGQPPKLLIYAASNLESGVPARFSGSGSGTDFTLTINPVEAEDTANYYCQQSFEDPLTFGQGTKLEIKRTVAAPSVFIFPPSDEQLKSGTASVVCLLNNFYPREAKVQWKVDNALQSGNSQESVTEQDSKDSTYSLSSTLTLSKADYEKHKVYACEVTHQGLSSPVTKSFNRGEC
notes: also called 24D5 H13 and 24D5 L61
B11: H16L61 (antibody, human IgG1, kappa)
heavy: not shown
light: B10 light
notes: also called 24D5 H16 and 24D5 L61
B12: H17L61 (antibody, human IgG1, kappa, V domains shown)
VH: B4 VH with S52G, S54N, S55L, M57W, V59M, F64Y, R87G
VL: B4 VL
notes: also called 24D5 H17 and 24D5 L61
B13: H21L67 (antibody, human IgG1, kappa, V domains shown)
VH: B4 VH with S31D, Y32K, H35M, S52T, M57F, V59M
VL: B4 VL with A54V, L58V
notes: also called 24D5 H21 and 24D5 L67
B14: H21L69 (antibody, human IgG1, kappa, V domains shown)
VH: B4 VH with S31D, Y32K, H35M, S52T, M57F, V59M
VL: B4 VL with A54V, L58V, E59Y
notes: also called 24D5 H21 and 24D5 L69
B15: H21L66 (antibody, human IgG1, kappa, V domains shown)
VH: B4 VH with S31D, Y32K, H35M, S52T, M57F, V59M
VL: B4 VL with A54V, L58V, E59F
notes: also called 24D5 H21 and 24D5 L66
B16: HRP00052-IgG1 (antibody)
heavy: not shown
light: B10 light

Residue numbers refer to the chain shown, from its start.

T3 sequence (Q9NZQ7 19-239 limits assumed): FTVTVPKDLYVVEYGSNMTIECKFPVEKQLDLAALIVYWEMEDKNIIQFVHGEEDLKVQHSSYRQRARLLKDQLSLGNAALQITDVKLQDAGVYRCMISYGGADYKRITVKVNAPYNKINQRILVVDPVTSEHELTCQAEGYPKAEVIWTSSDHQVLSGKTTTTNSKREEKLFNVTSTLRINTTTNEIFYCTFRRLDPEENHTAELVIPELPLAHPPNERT
T2 sequence (G7PSE7 entry or part of it C08H C08H): as the sequence (Q9NZQ7 19-239 limits assumed) above, with A33T, A34S, S62N, R68Q, Q82R, F173L, T185A, T192I, H215L counted along it
T4 sequence (Q9NZQ7 19-238 limits assumed): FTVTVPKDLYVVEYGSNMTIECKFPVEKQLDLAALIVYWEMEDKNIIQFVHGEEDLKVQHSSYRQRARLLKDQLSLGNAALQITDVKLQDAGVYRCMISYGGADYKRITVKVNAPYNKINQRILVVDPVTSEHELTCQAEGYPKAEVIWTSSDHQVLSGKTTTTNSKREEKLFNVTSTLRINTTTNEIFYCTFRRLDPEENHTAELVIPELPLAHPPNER
T1 sequence (Q9EP73 19-238 limits assumed, stated change not applied): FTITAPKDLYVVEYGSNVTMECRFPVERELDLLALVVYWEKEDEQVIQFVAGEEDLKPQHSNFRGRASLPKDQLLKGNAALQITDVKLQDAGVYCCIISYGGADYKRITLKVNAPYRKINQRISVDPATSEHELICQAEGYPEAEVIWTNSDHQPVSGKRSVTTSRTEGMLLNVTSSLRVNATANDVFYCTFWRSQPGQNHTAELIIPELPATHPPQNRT

The first assay has as its target T1, mouse PD-L1 (Cat. #50010-M08H, Sino Biological) (mouse, UniProt Q9EP73 19-238).
T1 construct: Bought recombinant protein used in the Biacore test
Kind of assay: SPR, Biacore X100, 1:1 Langmuir. As to the method:
(§1) According to the method in the manual of human anti-capture kit (Cat. A BR-1008-39, GE), the human anti-capture antibody was covalently coupled to biosensor chip CM5 (Cat. #BR-1000-12, GE) so that a certain amount of human PD-L1 (Cat. #10084-H08H, Sino Biological) monkey PD-L1 (Cat. #90251-C08H, Sino Biological), mouse PD-L1 (Cat. #50010-M08H, Sino Biological) were affinity captured. The affinity of PD-L1 antibody reacting with PD-L1 was measured with Biacore X100, GE instrument.
A general note: SPR reads the build-up and loss of mass on a sensor chip optically.
In turn, B1 came in with a Kd of 18.1 nM, a dissociation rate constant (koff) of 0.0119 s⁻¹ and a kon of 655000 M⁻¹ s⁻¹.
The like results for B2 were, in that order, 69.6 nM, 0.0564 s⁻¹ and 811000 M⁻¹ s⁻¹.
The like results for B3 were, in that order, 135 nM, 0.0182 s⁻¹ and 135000 M⁻¹ s⁻¹.

The next assay concerns the target T2, monkey PD-L1 (Cat. #90251-C08H, Sino Biological) (monkey (cyno), UniProt G7PSE7 19-239).
T2 construct: Bought recombinant protein used in the Biacore test; also called Monkey (cyno) PD-L1; Cyno PDL1
Kind of assay: SPR, Biacore X100, 1:1 Langmuir. The method, then: as §1
In turn, B4 gave a Kd of 0.048 nM, an off-rate (koff) of 7.68e-05 s⁻¹ and a kon of 1.6e+06 M⁻¹ s⁻¹.
Molecule B5 came in with a Kd of 0.0458 nM, an off-rate (koff) of 8.38e-05 s⁻¹ and a kon of 1.83e+06 M⁻¹ s⁻¹.
Take B1: binding was characterised by a dissociation constant (Kd) of 0.318 nM, the off-rate (koff) turned out to be 0.000151 s⁻¹ and the association rate constant (kon) worked out at 474000 M⁻¹ s⁻¹.
The like results for B2 were, in that order, 0.211 nM, 0.000121 s⁻¹ and 572000 M⁻¹ s⁻¹.

Another assay concerns the target T3, human PD-L1 (Cat. #10084-H08H, Sino Biological) (human, UniProt Q9NZQ7 19-239).
T3 construct: Bought recombinant protein used in the Biacore test; also called hPDL1; hPD-L1
Kind of assay: SPR, Biacore X100, 1:1 Langmuir. As to the method: as §1
Molecule B4 had a dissociation constant Kd of 0.033 nM, a koff of 5.63e-05 s⁻¹ and a kon of 1.71e+06 M⁻¹ s⁻¹.
The like results for B6 were, in that order, 0.0326 nM, 7.1e-05 s⁻¹ and 2.18e+06 M⁻¹ s⁻¹.
The like results for B7 were, in that order, 0.038 nM, 9.1e-05 s⁻¹ and 2.4e+06 M⁻¹ s⁻¹.
On to B8, for which the Kd was 0.0327 nM, the dissociation rate constant (koff) was 7.65e-05 s⁻¹ and the kon was 2.34e+06 M⁻¹ s⁻¹.
With B9, the Kd came to 0.0325 nM, the off-rate (koff) came to 7.88e-05 s⁻¹ and the kon was 2.43e+06 M⁻¹ s⁻¹.
The like results for B10 were, in that order, 0.0261 nM, 6.66e-05 s⁻¹ and 2.55e+06 M⁻¹ s⁻¹.
For the molecule B11, the Kd was determined as 0.0254 nM, the koff amounted to 6.43e-05 s⁻¹ and the association rate constant (kon) came out at 2.53e+06 M⁻¹ s⁻¹.
In turn, B12 displayed an equilibrium dissociation constant (Kd) of 0.0393 nM, a koff of 9.53e-05 s⁻¹ and an association rate constant (kon) of 2.43e+06 M⁻¹ s⁻¹.
B5: the dissociation constant Kd was 0.0326 nM, the off-rate (koff) is 7.1e-05 s⁻¹ and the kon stood at 2.18e+06 M⁻¹ s⁻¹.
With B1, the affinity, expressed as Kd, was 0.227 nM; the koff came out at 0.000113 s⁻¹; the on-rate (kon) worked out at 495000 M⁻¹ s⁻¹.
In the case of B2, the Kd turned out to be 0.203 nM, the koff amounted to 0.000124 s⁻¹ and the on-rate (kon) was found to be 611000 M⁻¹ s⁻¹.
With B3, the Kd is 1.39 nM, the koff was 0.000389 s⁻¹ and the on-rate constant (kon) turned out to be 281000 M⁻¹ s⁻¹.

The next assay addresses T2, monkey PD-L1 (Cat. #90251-C08H, Sino …). As to the kind of experiment: SPR, Biacore X100, 1:1 Langmuir. This is another data set of the same source. As to the method: as §1
Regarding B13, binding was put at a Kd of 0.0528 nM, the koff is 0.000124 s⁻¹ and the kon is 2.35e+06 M⁻¹ s⁻¹.
The like results for B14 were, in that order, 0.0526 nM, 0.000119 s⁻¹ and 2.27e+06 M⁻¹ s⁻¹.
For the molecule B15, the affinity, expressed as Kd, was 0.0563 nM; the dissociation rate constant (koff) turned out to be 0.000122 s⁻¹; the kon stood at 2.17e+06 M⁻¹ s⁻¹.

The next assay addresses T3, human PD-L1 (Cat. #10084-H08H, Sino …). As to the kind of experiment: SPR, Biacore X100, 1:1 Langmuir. The source holds these as a separate data set. The method, then:
as §1
Regarding B13, the Kd is 0.0522 nM, the koff was found to be 0.00012 s⁻¹ and the kon came to 2.3e+06 M⁻¹ s⁻¹.
The like results for B14 were, in that order, 0.0563 nM, 0.000129 s⁻¹ and 2.29e+06 M⁻¹ s⁻¹.
The like results for B15 were, in that order, 0.0533 nM, 0.000104 s⁻¹ and 1.95e+06 M⁻¹ s⁻¹.

Another assay concerns the target T4, human PD-L1 (ligand blocking test) (human, UniProt Q9NZQ7 19-238, limits assumed). As to the kind of experiment: blocking of B7-1 binding to human PD-L1, PD-L1 1 ug/ml; competitor B7-1.
As for B4, the IC50 worked out at 1.38 ng/mL.
Still for that read-out and setting: to B5 belongs 0.826 ng/mL.
Still for that read-out and setting: to B16 belongs 1.65 ng/mL; to B1, 1.69 ng/mL; to B2, 1.45 ng/mL.

In the next assay the target is T4, human PD-L1 (ligand blocking test). As to the kind of experiment: blocking of human PD-L1/PD-1 binding, PD-L1 10 ug/ml; competitor PD-1.
In the case of B4, the IC50 came out at 0.228 ng/mL.
B5 yielded a 50% inhibitory concentration (IC50) of 0.215 ng/mL.
As to B16, the IC50 came to 0.338 ng/mL.
Turning to B1, the IC50 is 0.29 ng/mL.
On to B2, for which the IC50 came out at 0.168 ng/mL.

The next assay deals with mouse PD-L1 (ligand blocking test) (mouse, UniProt Q9EP73 19-238, limits assumed). Kind of assay: blocking of mouse PD-L1/PD-1 binding, PD-L1 5 ug/ml; competitor PD-1.
Sequence of mouse PD-L1 (ligand blocking test) (Q9EP73 19-238 limits assumed): as the sequence (Q9EP73 19-238 limits assumed, stated change not applied) above
B1: the IC50 was determined as 1.23 ng/mL.
Same read-out and setting: next, B2: 0.927 ng/mL.

What is called Kd is a measure of binding affinity in units of concentration. As a reminder, the koff is the rate constant with which the complex falls apart. In general, kon refers to the second-order rate constant of association. One may read the IC50 as the concentration needed to halve the response being measured.
